Measurements reported in patent US20250270343A1 (Alector, published 2025).

T1: soluble human GPNMB-Fc polypeptide (human, UniProt Q14956 23-498, limits assumed)
T1 construct: also called huGPNMB-Fc; not shown: Fc domain
T1 sequence (looked up): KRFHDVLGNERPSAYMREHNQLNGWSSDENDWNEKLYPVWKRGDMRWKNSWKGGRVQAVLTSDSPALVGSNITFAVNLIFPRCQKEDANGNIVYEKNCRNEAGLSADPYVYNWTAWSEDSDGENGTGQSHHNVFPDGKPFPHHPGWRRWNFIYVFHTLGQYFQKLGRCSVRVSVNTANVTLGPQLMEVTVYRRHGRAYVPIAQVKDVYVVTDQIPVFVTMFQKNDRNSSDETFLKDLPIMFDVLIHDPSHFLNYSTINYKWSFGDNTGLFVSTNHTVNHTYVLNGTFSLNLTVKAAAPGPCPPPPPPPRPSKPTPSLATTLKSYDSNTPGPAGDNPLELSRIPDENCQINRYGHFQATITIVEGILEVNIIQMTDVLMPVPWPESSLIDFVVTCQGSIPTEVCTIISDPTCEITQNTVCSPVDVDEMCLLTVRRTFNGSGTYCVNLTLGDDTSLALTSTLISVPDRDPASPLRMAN

B1: soluble mouse GPNMB-Fc polypeptide (Fc of human IgG1 or mouse IgG2A, not specified for the assay) (Fc fusion, UniProt Q99P91 23-502, looked up)
chain: KRFRDVLGHEQYPDHMREHNQLRGWSSDENEWDEHLYPVWRRGDGRWKDSWEGGRVQAVLTSDSPALVGSNITFVVNLVFPRCQKEDANGNIVYEKNCRNDLGLTSDLHVYNWTAGADDGDWEDGTSRSQHLRFPDRRPFPRPHGWKKWSFVYVFHTLGQYFQKLGRCSARVSINTVNLTAGPQVMEVTVFRRYGRAYIPISKVKDVYVITDQIPVFVTMSQKNDRNLSDEIFLRDLPIVFDVLIHDPSHFLNDSAISYKWNFGDNTGLFVSNNHTLNHTYVLNGTFNLNLTVQTAVPGPCPPPSPSTPPPPSTPPSPPPSPLPTLSTPSPSLMPTGYKSMELSDISNENCRINRYGYFRATITIVEGILEVSIMQIADVPMPTPQPANSLMDFTVTCKGATPMEACTIISDPTCQIAQNRVCSPVAVDGLCLLSVRRAFNGSGTYCVNFTLGDDASLALTSTLISIPGKDPDSPLRAVN
notes: extracellular domain; also called moGPNMB-Fc; mGPNMB; not shown: Fc region of human IgG1 or mouse IgG2A; in the Fab2 assay detected with anti-human IgG1 secondary antibody

Experiments:
[1] = target: B1; assay: FACS, Fab2 enhancing moGPNMB-Fc binding to SVEC4-10 cells
Method: (§1) Purified recombinant Fab2 fragments of select anti-GPNMB antibodies of the present disclosure were produced through transient transfection and purified. Briefly, 2 ug/mL soluble mouse or human GPNMB-Fc diluted in binding buffer was pre-complexed with increasing concentrations of anti-GPNMB Fab2 fragments in 96-well plates. Subsequently, 100,000 SVEC4-10 cells were added per well and incubated on ice for 30 minutes. Soluble moGPNMB-Fc or huGPNMB-Fc bound to cell surface was detected with fluorescent anti-human IgG1 secondary antibody and measured on FACSCanto. IC50 and EC50 values based on changes in MFI values were calculated for each antibody.

[2] = target: T1, soluble human GPNMB-Fc polypeptide; assay: FACS, Fab2 enhancing huGPNMB-Fc binding to SVEC4-10 cells
Method: as §1

[3] = target: B1; assay: FACS ligand binding assay: 2 ug/mL moGPNMB-Fc pre-complexed with rising Fab2, then SVEC4-10 cells; blocked ligand: unidentified ligand(s) on SVEC4-10 cells; bound GPNMB-Fc detected with anti-human IgG1 secondary
Method: as §1

[4] = target: B1; assay: FACS, Fab2 blocking moGPNMB-Fc binding to SVEC4-10 cells
Method: as §1

[5] = target: T1, soluble human GPNMB-Fc polypeptide; assay: FACS, Fab2 blocking huGPNMB-Fc binding to SVEC4-10 cells
Method: as §1

[6] = target: T2, unidentified GPNMB ligand(s) on the surface of NHLF cells; assay: flow cytometry, titration of soluble moGPNMB-Fc on normal human lung fibroblasts; MFI-APC against concentration (ug/mL)
T2 construct: written like m62, for NHLF cells; also called Normal Human Lung Fibroblast Cells
Description: The extracellular domain of GPNMB protein contains putative protein- or carbohydrate-binding domains capable of recognizing various ligands on the cell surface. […] Soluble mouse GPNMB-Fc polypeptide, consisting of the extracellular domain of mouse GPNMB and an Fc region of human IgG1 or mouse IgG2A (R&D System) (moGPNMB or mGPNMB) was used to confirm the binding activity of GPNMB towards different cell lines. Binding properties of soluble moGPNMB-Fc were examined by flow cytometry. Different cell lines (mouse SVEC4-10 cells, normal human lung fibroblasts (NHLF), mouse astrocytes, and human astrocytes were nonenzymatically harvested, plated at 100,000 cells/well, and incubated with increasing concentrations moGPNMB-Fc or control human IgG1 or control mouse IgG2A, in binding buffer (Hanks' balanced salt solution containing 1.3 mM CaCl₂, 0.8 mM MgSO₄, 3% fetal calf serum, and 10 mM HEPES) for 30 min on ice.
[…] Binding of soluble moGPNMB-Fc to cells was examined by FACSCanto (Becton Dickinson, San Jose, CA). In some experiments, the binding was performed in the presence of known GPNMB binding inhibitors (heparin, dextran sulfate, all purchased from Sigma).

EC50 [1] [nM]	EC50 [2] [nM]	IC50 [5] [nM]	Binder	also measured
0.38	0.83		recombinant Fab2 fragment of anti-GPNMB antibody GPN-65 (other, also called GPN-65 Fab2) VH: QLQLQQSGTEVVKPGASVKIPCKASGYAFSSYWMNWVKQRPGKGLEWIGQIYPGDGDTNDNGKFEGKATLTVDKSSNTAYIQLSSLTSEDSAVYFCARSPLHLRGSMDYWGQGTSVTVSS VL: SIVMTQTPKFLLVSAGDRVTITCKASQSVSNDVAWFQQKPGQSPELLIYSASNRYTGVPDRFTGSGYGTDFTFTISTVQAEDLAVYFCQQNYYSPFTFGGGTRLEIK	
			recombinant Fab2 fragment of anti-GPNMB antibody GPN-41 (other, also called GPN-41 Fab2) VH: QLQLQQSGTEVVKPGASVKIPCKASGYAFSSYWMNWVKQRPGKGLEWIGQIYPGDGDTNDNGKFEGKATLTVDKSSNTAYIQLSSLTSEDSAVYFCARSPLHLRGSMDYWGQGTSVTVSS VL: SIVMTQTPKFLLVSAGDRVTITCKASQSVSNDVAWFQQKPGQSPELLIYSASNRYTGVPDRFTASGYGTDFTFTISAVQAEDLAVYFCQQNYYSPFTFGGGTRLEIK	IC50 (read off the curve) [3]: ~4000 nM
		5.08	recombinant Fab2 fragment of anti-GPNMB antibody GPN-35 (other, also called GPN-35 Fab2) VH: EVQLVESGGGSVRPGRSLKLSCAAAGFTFSDYYMTWVRQAPTKGLEWVASINHDGGGTYYRDSVKGRFTISRDNARSSLYLQMDSLRSEDTGTYYCTTRAGWHWGQGVMVTVSS VL: DIQMTQSPASLSASLGETVSIECLASEDIYNYLTWYQQKPGKSPQVLIYSASGLQDGVPSRFSGSGSGRQYSLKINGLESEDAATYFCLQDSEYPLTFGSGTKLEIK	IC50 [4]: 4.05 nM
5.83	2.15		recombinant Fab2 fragment of anti-GPNMB antibody GPN-38 (other, also called GPN-38 Fab2) VH: QVQLQQPGAELVRPGTSVRLSCKASGYTFTSYWIHWVKQRPGRGLEWIGVIDPSDSYTNYNQQFNVKATLTVDTSSSAAYMQLSSLTSEDSAVYYCARGLITAVNWYFDVWGTGTTVTVSS VL: DIQMTQSPASLSTSVGEIVTITCRASENIYSYLTWYQQKQGKSPQLLVYNAKTLAEGVPSRFSGSGSGTQFSLKINSLQPEDFGTYYCQHHYGTPLTFGSGTKLEIK	
		9.49	recombinant Fab2 fragment of anti-GPNMB antibody GPN-37 (other, also called GPN-37 Fab2) VH: EVQLVESGGGLVQPGRSLKLSCAASGFTFSSKSGMAWVRQAPTKGLEWVASISNGGGDTYYRDSVKGRFTISRDNAKNTQYLQMDSLRPEDTATYYCARHRDYGYDAYFDYWGQGVMVTVSS VL: DIQMTQSPASLSASLGETVTIECLASEDIYSSLAWYQQKPGKSPQLLIYDASSLQDGVPSRFSGSESGTQYSLEINSLQSEDAATYFCQQHHDYPYTFGAGTKLELK	
			B1	EC50 (read off the curve) [6]: ~0.1 µg/mL
